The values below are quoted from earlier work in PMC7710720.

The data set deals with Neurotensin (Homo sapiens) (UniProt P30990).

Regarding “Neurotensin receptor 2 (from UniProt O95665)”, the Kd was 6 nM.

A word on the Kd: it is the equilibrium constant for the complex coming apart.
